Experimental data as given in the supplement of paper PMC7877785.
± gives the uncertainty stated by the source.

Assay: self-splicing fitness, log relative to wild type (ln ratio); higher = more splicing; Tetrahymena group I intron in knt gene, E. coli kanamycin selection, DiMSum; sequences stand for … in CUCUCU…GGAGGGAAAAGUUAUCAGGCAUGCACCUGGUAGCUAGUCUUUAAACCAAUAGAUUGCAUCGGUUUAAAAGGCAAGACCGUCAAAUUGCGGGAAAGGGGUCAACAGCCGUUCAGUACCAAGUCUCAGGGGAAACUUUGAGAUGGCCUUGCAAAGGGUAUGGUAAUAAGCUGACGGACAUGGUCCUAACCACGCAGCCAAGUCCUAAGUCAACAGAUCUUCUGUUGAUAUGGAUGCAGUUCACAGACUAAAUGUCGGUCGGGGAAGAUGUAUUCUUCUCAUAAGAUAUAGUCGGACCUCUCCUUAAUGGGAGCUAGCGGAUGAAGUGAUGCAACACUGGAGCCGCUGGGAACUAAUUUGUAUGCGAAAGUAUAUUGAUUAGUUUUGGAGUACUCGUGGUCG
Summary of the method: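 Library with all eight P1ex-region intron nucleotides randomised, intron inside the knt kanamycin-resistance gene on pET-22b(+), in E. coli BL21(DE3). Cells grew overnight at 37°C or 30°C on LB agar with or without 25 μg/mL kanamycin (plus 100 μg/mL carbenicillin, 50 μM IPTG, 0.2% rhamnose), in six replicate transformations. Pooled colonies were amplicon-sequenced on Illumina HiSeq 2500. DiMSum fitness is the error-weighted combination of wild-type-normalised replicate fold changes, kanamycin versus none.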

Row | Sequence | self-splicing fitness (ln) (30 °C) | self-splicing fitness (ln) (37 °C)
1 | AAGGAGCAAUAUUACGAAUG | -2.39 ± 0.22 | 
2 | GGCCAGCAAUAUUACGCCGA | -1.54 ± 0.16 | -1.18 ± 0.14
3 | AAGGAGCAAUAUUACGUUCG | -1.78 ± 0.11 | -0.665 ± 0.2
4 | GCAUAGCAAUAUUACGACGA | -1.06 ± 0.14 | -0.364 ± 0.14
5 | ACGUAGCAAUAUUACGGGAU | -2.67 ± 0.16 | -1.97 ± 0.16
6 | AACGAGCAAUAUUACGGCUA | -1.23 ± 0.15 | -0.829 ± 0.18
7 | AAAUAGCAAUAUUACGUAGA | -3.32 ± 0.17 | -0.484 ± 0.1
8 | GUGUAGCAAUAUUACGACGA | -0.571 ± 0.14 | -0.584 ± 0.16
9 | UCCAAGCAAUAUUACGUCGC | -3.47 ± 0.21 | -3.12 ± 0.28
10 | UAAAAGCAAUAUUACGAACA | -0.822 ± 0.072 | 0.504 ± 0.11
11 | UAACAGCAAUAUUACGUGCC | -3.5 ± 0.22 | -1.9 ± 0.15
12 | CCAAAGCAAUAUUACGUCAC | -4.61 ± 0.25 | -2.14 ± 0.19
13 | AAGAAGCAAUAUUACGUUAU | -3.52 ± 0.14 | -1.88 ± 0.15
14 | UCCGAGCAAUAUUACGAGCA | -1.02 ± 0.1 | -0.767 ± 0.097
15 | AUGCAGCAAUAUUACGAACA | -0.00786 ± 0.13 | 0.392 ± 0.16
16 | CGUGAGCAAUAUUACGCGAG | -1.12 ± 0.21 | 
17 | CUAGAGCAAUAUUACGUGAU | -1.85 ± 0.09 | -0.696 ± 0.1
18 | AAGGAGCAAUAUUACGUCAU | -3.84 ± 0.2 | -2.94 ± 0.24
19 | CAGAAGCAAUAUUACGUACA | -2.14 ± 0.11 | -0.932 ± 0.12
20 | CAUAAGCAAUAUUACGGAUA | -3.62 ± 0.19 | -2.87 ± 0.18
21 | AUUGAGCAAUAUUACGGAGA |  | -1.85 ± 0.47
22 | AAGAAGCAAUAUUACGUGAA | -2.16 ± 0.1 | -0.97 ± 0.091
23 | CUUCAGCAAUAUUACGCGGU | -2.21 ± 0.096 | -0.649 ± 0.095
24 | UACAAGCAAUAUUACGUCGG | -2.46 ± 0.082 | -0.921 ± 0.088
25 | CAUGAGCAAUAUUACGGAAU | -4.62 ± 0.36 | -2.58 ± 0.28

Row | Sequence | self-splicing fitness (ln) (30 °C) | self-splicing fitness (ln) (37 °C)
26 | CUUCAGCAAUAUUACGCCGA |  | -2.47 ± 0.31
27 | CGGCAGCAAUAUUACGCGAU | -2.36 ± 0.19 | -1.4 ± 0.25
28 | AUCGAGCAAUAUUACGGAAG |  | -0.716 ± 0.16
29 | CUAGAGCAAUAUUACGGGUA | -3.53 ± 0.36 | -2.3 ± 0.36
30 | UACGAGCAAUAUUACGCAGC | -3.16 ± 0.34 | -3.83 ± 0.46
31 | GGCGAGCAAUAUUACGCGUC |  | -2.65 ± 0.39
32 | AGUAAGCAAUAUUACGUAGC | -4.37 ± 0.42 | -3.1 ± 0.47
33 | UAUUAGCAAUAUUACGAAAA | -1.68 ± 0.26 | -1.2 ± 0.26
34 | AUGUAGCAAUAUUACGUCUC |  | -2.4 ± 0.3
35 | GUACAGCAAUAUUACGGAGC | -3.06 ± 0.14 | -2.17 ± 0.15
36 | AGCCAGCAAUAUUACGAAAU | -3.02 ± 0.11 | -2.17 ± 0.13
37 | AACAAGCAAUAUUACGCCGC | -3.05 ± 0.31 | -1.94 ± 0.36
38 | AUGCAGCAAUAUUACGCCGA | -1.55 ± 0.14 | -0.543 ± 0.17
39 | CUUCAGCAAUAUUACGUUAU | -3.2 ± 0.26 | -2.14 ± 0.28
40 | ACGCAGCAAUAUUACGUGAA | -2.62 ± 0.15 | -1.01 ± 0.13
41 | AACAAGCAAUAUUACGCCUC | -1.75 ± 0.14 | -0.437 ± 0.15
42 | GCUCAGCAAUAUUACGCUCA | -1.59 ± 0.11 | -0.171 ± 0.11
43 | AAAUAGCAAUAUUACGGCAG | -1.67 ± 0.15 | -0.465 ± 0.16
44 | ACGCAGCAAUAUUACGGGAC | -3.2 ± 0.22 | -1.84 ± 0.2
45 | GGCGAGCAAUAUUACGCGGU | -3.13 ± 0.21 | -1.69 ± 0.22
46 | AACGAGCAAUAUUACGCUGU | -2.67 ± 0.45 | -2.99 ± 0.4
47 | AAGAAGCAAUAUUACGUUCC | -1.29 ± 0.14 | 0.0973 ± 0.19
48 | UUAGAGCAAUAUUACGUCGU | -3.46 ± 0.4 | -1.26 ± 0.21
49 | CGUGAGCAAUAUUACGGUUG | -1.49 ± 0.07 | -0.412 ± 0.094
50 | UUAAAGCAAUAUUACGCCCU | -0.437 ± 0.11 | 0.33 ± 0.14

Row | Sequence | self-splicing fitness (ln) (30 °C) | self-splicing fitness (ln) (37 °C)
51 | GUGGAGCAAUAUUACGAGGG | -4.4 ± 0.33 | 
52 | UAGUAGCAAUAUUACGUCUG | 0.113 ± 0.19 | -0.884 ± 0.2
53 | GUAGAGCAAUAUUACGGAUA |  | -0.969 ± 0.41
54 | GUGUAGCAAUAUUACGUUUU | -3.32 ± 0.16 | -1.45 ± 0.12
55 | ACCGAGCAAUAUUACGAGCG | -3.24 ± 0.21 | -0.734 ± 0.16
56 | GUGCAGCAAUAUUACGCACG | -2.88 ± 0.38 | -2.85 ± 0.45
57 | GUAUAGCAAUAUUACGCGUU | -1.21 ± 0.11 | -1.33 ± 0.17
58 | GCUGAGCAAUAUUACGCGCG | -0.818 ± 0.16 | -0.503 ± 0.19
59 | CCUCAGCAAUAUUACGACAU | -3.84 ± 0.024 | -2.84 ± 0.039
60 | GUGGAGCAAUAUUACGCCUG | -2.7 ± 0.23 | 
61 | AAUGAGCAAUAUUACGGUGC | -3.37 ± 0.23 | -3.03 ± 0.27
62 | UAGCAGCAAUAUUACGUGCA | -0.411 ± 0.082 | -0.287 ± 0.086
63 | ACUCAGCAAUAUUACGAGCU | -1.04 ± 0.064 | -0.447 ± 0.079
64 | AAGUAGCAAUAUUACGACCC | 0.421 ± 0.3 | 0.212 ± 0.29
65 | UGAGAGCAAUAUUACGCCGA | -1.96 ± 0.36 | 
66 | AUUCAGCAAUAUUACGUUAC | -2.76 ± 0.17 | -1.2 ± 0.12
67 | GCAGAGCAAUAUUACGGUCA | -0.893 ± 0.21 | -0.283 ± 0.14
68 | UCUCAGCAAUAUUACGAAGA | -1.98 ± 0.15 | -1.21 ± 0.15
69 | UCUCAGCAAUAUUACGUGUC | -3.41 ± 0.14 | -3.2 ± 0.17
70 | AGUCAGCAAUAUUACGAUUU | -0.399 ± 0.064 | -0.286 ± 0.11
71 | UUUAAGCAAUAUUACGUUAG | -1.75 ± 0.13 | -0.995 ± 0.14
72 | GGACAGCAAUAUUACGCUGG | -2.75 ± 0.28 | -2 ± 0.34
73 | ACUCAGCAAUAUUACGAUUU | 0.00163 ± 0.057 | 0.417 ± 0.073
74 | UUAUAGCAAUAUUACGUACG | -1.03 ± 0.12 | -0.0555 ± 0.17
75 | GGGUAGCAAUAUUACGUUCC |  | -2.09 ± 0.46

Row | Sequence | self-splicing fitness (ln) (30 °C) | self-splicing fitness (ln) (37 °C)
76 | UAUAAGCAAUAUUACGAGCU | -3.44 ± 0.34 | -1.47 ± 0.21
77 | UUGCAGCAAUAUUACGAGCG | -1.14 ± 0.15 | -0.665 ± 0.15
78 | UAUAAGCAAUAUUACGUGUG | -0.923 ± 0.073 | -0.446 ± 0.088
79 | UCUAAGCAAUAUUACGCCCC |  | -1.6 ± 0.44
80 | UUUCAGCAAUAUUACGGGCA | -0.321 ± 0.076 | -0.0917 ± 0.085
81 | UAACAGCAAUAUUACGUUCU | -1.17 ± 0.08 | -0.668 ± 0.079
82 | GUGCAGCAAUAUUACGUGUU | -1.99 ± 0.081 | -1.22 ± 0.084
83 | CCCUAGCAAUAUUACGUUAC | -4.52 ± 0.29 | -2.53 ± 0.27
84 | GGCUAGCAAUAUUACGUGUU | -1.02 ± 0.058 | 0.41 ± 0.063
85 | GUAGAGCAAUAUUACGGCGA | -1.87 ± 0.13 | -0.23 ± 0.16
86 | AGAAAGCAAUAUUACGAGCC | -2.01 ± 0.17 | -0.816 ± 0.21
87 | AUUCAGCAAUAUUACGGCCU | -1.03 ± 0.12 | 0.0851 ± 0.22
88 | GAAUAGCAAUAUUACGAUCG | 1.29 ± 0.19 | -0.178 ± 0.27
89 | UAUGAGCAAUAUUACGACUU | -2.66 ± 0.24 | 
90 | CGCGAGCAAUAUUACGGGGC | -3.26 ± 0.26 | 
91 | AAUUAGCAAUAUUACGCUUC | -2.91 ± 0.39 | -3.71 ± 0.39
92 | UAAGAGCAAUAUUACGAUCG | -3.62 ± 0.17 | -1.53 ± 0.18
93 | CGACAGCAAUAUUACGGCGA | -1.65 ± 0.14 | -0.523 ± 0.13
94 | AACAAGCAAUAUUACGGGAC | -2.86 ± 0.12 | -1.17 ± 0.12
95 | UCCUAGCAAUAUUACGCGCU | -2.24 ± 0.14 | -2.73 ± 0.23
96 | CUGUAGCAAUAUUACGUCGU | -2.99 ± 0.31 | -1.8 ± 0.28
97 | ACGUAGCAAUAUUACGGUUC | -3.18 ± 0.17 | -2.49 ± 0.31
98 | AUAAAGCAAUAUUACGAGCA | -0.252 ± 0.074 | -0.299 ± 0.082
99 | GGUUAGCAAUAUUACGUUGC | -2.41 ± 0.22 | -1.12 ± 0.42
100 | CGAUAGCAAUAUUACGAAGG | -0.374 ± 0.11 | -0.55 ± 0.17
